Experimental data: paper PMC10361993, “Amyloid modifier SERF1a interacts with polyQ-expanded huntingtin-exon 1 via helical interactions and exacerbates polyQ-induced toxicity” (Communications Biology, 2023)
Values joined by “and” are separate entries in the source; they are usually repeats but may differ in a detail not shown here. Equal entries are not always repeated. Blank lines part the entries; values can stand above or below the molecule they belong to. Where a SMILES comes first, the peptide text is derived from it.

T1: SERF1a (Homo sapiens, UniProt O75920)
T1 construct: Full-length SERF1a cDNA was amplified by PCR; His-tag with thrombin site (N, cleaved yes); made in house; host or cells: E. coli BL21(DE3), pET14b
T1 sequence (O75920 1-62 isoform O75920-2): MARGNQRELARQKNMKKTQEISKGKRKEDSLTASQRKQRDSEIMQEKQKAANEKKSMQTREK

B1: Human SERF1a (small EDRK-rich factor 1a), short form (natural protein, UniProt O75920-2 1-62, looked up)
chain: T1 sequence (O75920 1-62 isoform O75920-2)
notes: Small EDRK-rich factor 1a, human, short form of 62 residues (the long form has 110); full-length cDNA amplified by PCR from GenBank BC021174; 15N-labelled (M9 minimal medium) for the NMR titration; also called rSERF1a; recombinant SERF1a; source: E. coli BL21(DE3), purified (Ni-Sepharose, thrombin cleavage, Mono-S); not shown: His-tag, N-terminal, cleaved
B2: NT17 peptide (N-terminal 17 amino acids of Htt) (peptide, UniProt P42858 1-17, looked up)
peptide: MATLEKLMKAFESLKSF
notes: N-terminal 17 amino acids of huntingtin; source: synthetic peptide (peptide synthesis core, Genomics Research Center, Academia Sinica)

Assays:
SERF1a [1] = target: T1, SERF1a; assay: Isothermal titration calorimetry of Htt peptides with SERF1a; type: binding; conditions: ITC, 250 μM SERF1a injected into 50 μM peptide, 10 mM PB pH 7.4, 26 °C
Method: MicroCal iTC200 (GE) was used for ITC experiments. SERF1a was in 10 mM PB, pH 7.4. For Htt-0, Htt-1, Htt-2, Htt-4, and Htt-5, 300 μM SERF1a in syringe was injected into the cell containing 30 μM Htt peptides. The volume of each injection was 2 μl. For Htt-3 and NT17, 250 μM SERF1a in syringe was injected into the cell containing 50 μM Htt peptides. The volume of each injection was 1.5 μl. The cell of the calorimeter was maintained at 26 °C. ITC analysis software MicroCal Analysis Launcher (GE Healthcare) was used for data analysis.

[2] = ThT assay of Aβ and α-synuclein fibrillization with and without SERF1a; type: physicochemical; conditions: Aβ 25 μM, α-synuclein 50 μM, 25 °C, shaking
Method: For SERF1a and α-synuclein aggregation assay, α-Synuclein at 50 μM in Tris buffer (10 mM Tris-HCl, pH 7.4, and 150 mM NaCl) was incubated with different SERF1a concentrations in a 384-well ELISA plate. ThT at 10 μM was added in the samples. The samples were constantly rotated at 400 rpm during the incubation. ThT fluorescence was measured at 485 nm with an excitation of 442 nm at 25 °C by a microplate reader (SpectraMax M5; Molecule Devices) with SoftMax Pro 5.4. The data from independent trials were averaged, and the standard deviations were calculated.
were incubated at 25 °C with continuous shaking at 800 rpm. ThT fluorescence at 485 nm was monitored with excitation at 442 nm. The error bars represent standard deviation.

SERF1a [3] = target: T1, SERF1a; assay: Intrinsic tyrosine fluorescence titration of Aβ or α-synuclein with SERF1a; type: binding; conditions: tyrosine fluorescence quenching upon SERF1a titration, fitted
[4] = target: Htt-3 peptide (four prolines at a/d positions of the polyQ region); assay: ITC; 250 μM SERF1a in syringe injected into 50 μM Htt-3 or NT17 in the cell; 10 mM PB pH 7.4, 26 °C, 1.5 μl injections
[5] = target: B2; assay: as above; conditions: both partners purified
α-Synuclein, P37840 = assay: other fluorescence titration; tyrosine fluorescence of Aβ or α-synuclein titrated with SERF1a at different concentrations; quenching fitted; conditions: remark: other sources report otherwise
[6] = target: the molecule itself; assay: AUC; sedimentation velocity; NT17 and Htt-3 at 50 μM, Htt-0, Htt-1, Htt-2, Htt-4 and Htt-5 at 30 μM, in 10 mM PB pH 7.4, 42,000 rpm for 24 h at 25 °C; c(s) distribution, SEDFIT
[7] = target: B1; assay: ITC; 250 μM SERF1a in syringe injected into 50 μM Htt-3 or NT17 in the cell; 10 mM PB pH 7.4, 26 °C, 1.5 μl injections; conditions: both partners purified

Kd (SERF1a [1]): 332 nM
Molecule: CSCC[C@H](NC(=O)[C@H](CC(C)C)NC(=O)[C@H](CCCCN)NC(=O)[C@H](CCC(=O)O)NC(=O)[C@H](CC(C)C)NC(=O)[C@@H](NC(=O)[C@H](C)NC(=O)[C@@H](N)CCSC)[C@@H](C)O)C(=O)N[C@@H](CCCCN)C(=O)N[C@@H](C)C(=O)N[C@@H](Cc1ccccc1)C(=O)N[C@@H](CCC(=O)O)C(=O)N[C@@H](CO)C(=O)N[C@@H](CC(C)C)C(=O)N[C@@H](CCCCN)C(=O)N[C@@H](CO)C(=O)N[C@@H](Cc1ccccc1)C(=O)N1CCC[C@H]1C(=O)N[C@@H](CCC(N)=O)C(=O)N[C@@H](CCC(N)=O)C(=O)N1CCC[C@H]1C(=O)N[C@@H](CCC(N)=O)C(=O)N[C@@H](CCC(N)=O)C(=O)N[C@@H](CCC(N)=O)C(=O)N1CCC[C@H]1C(=O)N[C@@H](CCC(N)=O)C(=O)N[C@@H](CCC(N)=O)C(=O)N1CCC[C@H]1C(=O)N[C@@H](CCC(N)=O)C(=O)N[C@@H](CCC(N)=O)C(=O)N[C@@H](CCC(N)=O)C(=O)N[C@@H](Cc1ccc(O)cc1)C(=O)N[C@@H](CCCCN)C(=O)O [Htt-3] (H-MATLEKLMKAFESLKSFPQQPQQQPQQPQQQYK-OH)

Kd (SERF1a [3]): 20800 ± 8300 nM
Molecule: α-synuclein
effect of SERF1a on fibrillization (ThT assay) [2]: accelerated

Molecule: B1
Ka [4]: 3.01e+06 M⁻¹
Kd [4]: 332 nM
stoichiometry N [4]: 0.5
stoichiometry N [5]: ~0.5
Kd (α-Synuclein, P37840): 20800 nM

Molecule: MATLEKLMKAFESLKSFQQQQQQQQQQQQQQPPP [Htt-0, wild-type Htt peptide of 33 amino acids]
stoichiometry N [6]: 2

Molecule: MATLEKLMKAFESLKSFLQQLQQQLQQLQQQPPP [Htt-1, Htt peptide with four leucines in the polyQ region]
stoichiometry N [6]: 5 and 8

Molecule: B2
Ka [7]: 1.38e+07 M⁻¹
Kd [7]: 72.5 nM
